The values that follow come from patent US20210371536A1 (SEOUL NATIONAL UNIVERSITY R AND DB FOUNDATION, published 2021).

The target in test [1] is T1, mPDGFR-β on NIH3T3 cells (mouse, UniProt P05622 32-1098).
T1 construct: whole, on cells; also called NIH3T3 cells expressing mPDGFR-β; PDGFR-β present on the cell surface
Nature of the test: flow cytometry on NIH3T3 cells expressing mPDGFR-β, streptavidin-PE detection. (In general: A flow cytometer gives signals particle by particle.)
Protocol: The cells were treated with APC-anti human Cκ antibody and streptavidin-PE.
After washing, it was classified and analyzed with a FACS Canto II instrument (BD Biosciences, San Jose, Calif., USA). 10,000 cells were used for each measurement, and the results were analyzed by FlowJo (Tree Star, Ashland, Oreg., USA).

The target of test [2] is T2, Sus scrofa PDGFR-β-Fc chimera (Sus scrofa, UniProt Q6QNF3 33-530 (dog entry)).
T2 construct: also called Sus crowfa PDGFR-β; not shown: human Fc (hFc) and its junction to the receptor part
T2 chain: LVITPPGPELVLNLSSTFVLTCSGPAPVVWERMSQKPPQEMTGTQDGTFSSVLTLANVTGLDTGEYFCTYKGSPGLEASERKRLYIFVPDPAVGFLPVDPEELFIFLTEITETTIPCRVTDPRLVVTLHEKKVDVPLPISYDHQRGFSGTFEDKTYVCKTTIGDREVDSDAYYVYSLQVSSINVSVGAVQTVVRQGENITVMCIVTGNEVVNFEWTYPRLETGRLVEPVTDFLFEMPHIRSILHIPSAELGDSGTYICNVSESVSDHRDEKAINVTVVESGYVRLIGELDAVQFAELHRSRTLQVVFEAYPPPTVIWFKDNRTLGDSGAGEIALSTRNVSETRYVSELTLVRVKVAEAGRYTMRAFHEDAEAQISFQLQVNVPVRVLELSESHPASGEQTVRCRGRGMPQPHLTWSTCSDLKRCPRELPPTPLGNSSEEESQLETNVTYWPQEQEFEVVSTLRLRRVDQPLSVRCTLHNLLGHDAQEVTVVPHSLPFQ
Briefly: cross-species ELISA on coated antigen, 100 nM bispecific, HRP-anti-human Cκ detection.

Test [3] deals with T3, cynomolgus monkey PDGFR-β (Fc chimera) (cynomolgus monkey).
T3 construct: not shown: human Fc (hFc) and its junction to the receptor part
T3 chain: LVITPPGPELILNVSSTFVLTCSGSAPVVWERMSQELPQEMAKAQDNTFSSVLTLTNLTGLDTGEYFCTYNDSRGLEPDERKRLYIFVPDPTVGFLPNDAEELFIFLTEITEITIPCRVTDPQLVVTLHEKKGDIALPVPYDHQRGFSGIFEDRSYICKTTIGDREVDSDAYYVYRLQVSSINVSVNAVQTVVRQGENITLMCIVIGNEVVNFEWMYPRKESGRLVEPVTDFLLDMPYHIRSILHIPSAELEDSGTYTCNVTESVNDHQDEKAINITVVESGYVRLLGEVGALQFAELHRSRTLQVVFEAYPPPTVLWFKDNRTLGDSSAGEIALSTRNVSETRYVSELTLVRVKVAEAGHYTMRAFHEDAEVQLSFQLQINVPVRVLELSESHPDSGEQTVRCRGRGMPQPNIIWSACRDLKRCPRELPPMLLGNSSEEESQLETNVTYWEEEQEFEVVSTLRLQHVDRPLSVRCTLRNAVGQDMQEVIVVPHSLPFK
The test is described as above.

Test [4] has as its target T1, mPDGFR-β on NIH3T3 cells. Nature of the test: flow cytometry on NIH3T3 cells expressing mPDGFR-β, 100 nM, APC-anti human Cκ detection.
In test [5] the target is hPDGFR-β on human pericyte cells (human, UniProt P09619 33-1106). Briefly: cell-based or functional assay.
hPDGFR-β on human pericyte cells, sequence (P09619 33-1106): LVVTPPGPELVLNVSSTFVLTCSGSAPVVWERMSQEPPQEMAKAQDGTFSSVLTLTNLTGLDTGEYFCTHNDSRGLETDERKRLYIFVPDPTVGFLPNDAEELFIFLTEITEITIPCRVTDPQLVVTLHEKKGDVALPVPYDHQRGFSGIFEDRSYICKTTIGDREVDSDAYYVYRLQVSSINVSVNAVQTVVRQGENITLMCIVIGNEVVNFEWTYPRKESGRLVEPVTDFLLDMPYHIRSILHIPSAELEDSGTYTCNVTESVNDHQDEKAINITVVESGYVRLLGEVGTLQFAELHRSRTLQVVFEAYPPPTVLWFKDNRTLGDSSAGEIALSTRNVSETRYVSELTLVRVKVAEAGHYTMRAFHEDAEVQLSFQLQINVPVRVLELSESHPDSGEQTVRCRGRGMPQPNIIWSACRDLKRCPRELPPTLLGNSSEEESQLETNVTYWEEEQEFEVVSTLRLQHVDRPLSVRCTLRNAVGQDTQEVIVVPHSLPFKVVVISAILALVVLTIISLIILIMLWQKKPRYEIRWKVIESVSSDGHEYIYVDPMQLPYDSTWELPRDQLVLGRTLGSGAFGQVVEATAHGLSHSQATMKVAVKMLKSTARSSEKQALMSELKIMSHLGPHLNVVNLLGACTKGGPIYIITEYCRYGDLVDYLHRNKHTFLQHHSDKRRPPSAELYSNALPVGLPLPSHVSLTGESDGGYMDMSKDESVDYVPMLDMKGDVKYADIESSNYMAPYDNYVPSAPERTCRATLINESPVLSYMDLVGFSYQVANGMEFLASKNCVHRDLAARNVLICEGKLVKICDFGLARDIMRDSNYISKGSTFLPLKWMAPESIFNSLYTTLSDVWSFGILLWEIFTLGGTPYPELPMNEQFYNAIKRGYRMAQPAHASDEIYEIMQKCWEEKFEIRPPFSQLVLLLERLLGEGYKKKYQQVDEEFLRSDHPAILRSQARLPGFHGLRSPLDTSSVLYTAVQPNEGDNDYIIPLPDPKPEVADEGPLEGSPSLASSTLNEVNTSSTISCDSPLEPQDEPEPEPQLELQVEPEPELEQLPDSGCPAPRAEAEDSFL

T1 sequence (P05622 32-1098): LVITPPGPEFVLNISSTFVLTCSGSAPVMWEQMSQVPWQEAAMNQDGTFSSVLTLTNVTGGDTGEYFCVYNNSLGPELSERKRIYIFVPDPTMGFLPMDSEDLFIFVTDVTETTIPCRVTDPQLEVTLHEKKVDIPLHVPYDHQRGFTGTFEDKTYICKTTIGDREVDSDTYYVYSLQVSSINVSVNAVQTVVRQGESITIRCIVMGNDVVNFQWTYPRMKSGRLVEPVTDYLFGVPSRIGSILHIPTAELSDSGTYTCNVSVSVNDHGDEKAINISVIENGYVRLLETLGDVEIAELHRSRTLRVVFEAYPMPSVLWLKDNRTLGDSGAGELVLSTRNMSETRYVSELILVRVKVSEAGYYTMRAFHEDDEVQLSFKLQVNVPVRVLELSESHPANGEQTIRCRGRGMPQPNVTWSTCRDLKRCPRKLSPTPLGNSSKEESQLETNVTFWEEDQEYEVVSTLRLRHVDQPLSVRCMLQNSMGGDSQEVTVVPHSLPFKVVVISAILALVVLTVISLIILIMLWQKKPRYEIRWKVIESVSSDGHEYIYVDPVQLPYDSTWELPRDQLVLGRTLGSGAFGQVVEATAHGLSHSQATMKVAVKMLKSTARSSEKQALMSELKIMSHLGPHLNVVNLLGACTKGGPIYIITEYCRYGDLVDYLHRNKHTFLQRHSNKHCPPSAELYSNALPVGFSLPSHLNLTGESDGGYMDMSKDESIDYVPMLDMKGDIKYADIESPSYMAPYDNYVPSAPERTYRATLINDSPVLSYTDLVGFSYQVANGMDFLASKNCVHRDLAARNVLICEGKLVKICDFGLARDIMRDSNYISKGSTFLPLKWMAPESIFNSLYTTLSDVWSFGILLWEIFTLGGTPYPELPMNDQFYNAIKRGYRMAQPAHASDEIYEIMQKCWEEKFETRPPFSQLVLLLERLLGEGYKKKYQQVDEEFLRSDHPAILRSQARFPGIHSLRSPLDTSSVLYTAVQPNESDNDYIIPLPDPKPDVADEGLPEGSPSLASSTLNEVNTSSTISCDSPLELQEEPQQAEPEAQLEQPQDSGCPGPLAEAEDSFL

B1: mPDGF-BB-biotin (ligand, mouse, UniProt P31240 82-190, looked up)
chain: SLGSLAAAEPAVIAECKTRTEVFQISRNLIDRTNANFLVWPPCVEVQRCSGCCNNRNVQCRASQVQMRPVQVRKIEIVRKKPIFKKATVTLEDHLACKCETIVTPRPVT
modifications: biotinylated (biotin-xx microscale protein labeling kit); sites not stated
notes: also called biotin-mPDGF-BB
B1: in the test with mPDGFR-β on NIH3T3 cells [1], the binding result is “binds”.

B2: PRb-CN32 x cotinine scFv-Cκ-scFv fusion protein (bispecific antibody) (bispecific antibody)
chain: LTQPSSVSANLGETVKITCSGGSNAGSYYYGWYQQKSPGSAPVTVIYSNNQRPSDIPSRFSGSTSGSTSTLTITGVQVDDEAVYFCGSGDSSSIAAFGAGTTLTVLGQSSRSSGGGGSSGGGGSAVTLDESGGGLQTPRGTLSLVCKASGFTFSSFNMFWVRQAPGKGLEFVAGISTTGRYTGYGSAVQGRGTISRDNGQSTVRLQLNNLRAEDTGTYYCAKSAGSTYSYWDSDAGLIDAWGHGTEVIVSSTSGGGGSGGGGSGGGGSRTVAAPSVFIFPPSDEQLKSGTASVVCLLNNFYPREAKVQWKVDNALQSGNSQESVTEQDSKDSTYSLSSTLTLSKADYEKHKVYACEVTHQGLSLPVTKSFNRGESGGGGSGGGGSGGGGSDIQMTQSPSSLSASVGDRVTITCQSSQSPYSNEWLSWYQQKPGKAPKLLIYRISTLASGVPSRFSGSRSGTDFTLTISSLQPEDFATYYCAGGYNFGLFLFGQGTKVEIKGQSSRSSGGGGSSGGGGSEVQLVESGGGLVQPGGSLRLSCAASGHLRRRDWMNWVRQAPGKGLEWVAAIGRSGDTYYATWAKGRFTISADTSKNTAYLQMNSLRAEDTAVYYCSRIPYFGWNNGDIWGQGTLVTVSS
notes: also called PRb-32; PRb-CN32 bispecific scFv-Cκ-scFv
Take B2: the binding result (in test [2]; in test [3]; with mPDGFR-β on NIH3T3 cells [4]) was “binds” in each case. Moreover, the “IC50 (nM) of relative cell viability (cellular ATP), human pericyte cells, bispecific complexed with cot-duo, with hPDGF-BB” value in test [5] was determined as 0.87 nM. The “IC50 (nM) of relative cell viability (cellular ATP), human pericyte cells, bispecific complexed with cot-duo, without hPDGF-BB” value in test [5] was 0.78 nM.
